Laboratory results taken from patent publication US20250011433A1 (GLIKNIK, published 2025).
Like-named read-outs stand apart in the source and are kept apart here.

T1: FcγRIIb (UniProt P31994 46-217, limits assumed)
T1 sequence (looked up): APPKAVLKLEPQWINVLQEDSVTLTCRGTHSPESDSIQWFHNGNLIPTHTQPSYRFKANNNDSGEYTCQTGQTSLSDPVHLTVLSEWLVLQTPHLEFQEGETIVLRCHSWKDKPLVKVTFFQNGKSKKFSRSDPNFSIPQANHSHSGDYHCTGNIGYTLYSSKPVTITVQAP


Legend:
FcγRI [1] = molecular target: T2, FcγRI (UniProt P12314 16-288); test: BLI (Octet)
T2 construct: also called CD64
Protocol: (§1) Binding of complement-preferential stradomers or parent stradomer G045c to FcγRI, FcγRIIb, FcγRIIIa, FcγRIIa, or FcRn was assessed. RU values of dissociation were measured by biolayer interferometry using a ForteBio Octet instrument. His-tagged receptor proteins were bound to the sensor tip in 1× kinetic analysis buffer from ForteBio after which the on rate of the receptor/protein was measured by transferring the sensor tip to a 1× kinetics buffer containing the purified stradomer of choice. Off rate was measured by transferring the sensor tip to a 1× kinetics buffer, and RU value was calculated from the measured maximum binding using the ForteBio software. Biolayer interferometry detects the binding between a ligand immobilized on the biosensor tip surface and an analyte in solution. When binding occurs it produces an increase in optical thickness at the biosensor tip, which results in a wavelength shift (detected as a response unit of “RU”). The maximum binding level (RU max) is the maximum possible amount of sample binding at equilibrium that saturates the amount of ligand on the sensor surface. The RU 300 is the residual sample binding after 300 seconds of dissociation and is useful to characterize the rate of dissociation of the test article from the test ligand.
(§2) For each stradomer in Tables 5-9, the level of canonical FcγR binding, complement C1q binding, and CDC inhibition were determined according to the methods described in Example 1.

FcγRIIb [2] = molecular target: T1, FcγRIIb; test: BLI (Octet)
Protocol: as §1, §2

C1q [3] = molecular target: T3, C1q (UniProt P02745 23-245; P02746 28-253; P02747 29-245); test: ELISA on coated C1q
T3 construct: bought C1q coated on ELISA plates at 1 µg/ml; also called complement C1q; complement factor C1q
Protocol: (§3) For C1q binding, 96 well plates were coated with C1q (Sigma Cat #: C1740 1 μg/ml) overnight in PBS. After coating, plates were washed 3 times with standard wash buffer (iX PBS+0.05% Tween 20) and blocked with blocking buffer (1% BSA+1× PBS+0.05% Tween 20) for 2 hours at RT. Following blocking, plates were incubated with compound diluted in blocking buffer 100 μL/well and washed 3 times with standard washing buffer. C1q-bound compound was detected by incubation with 1:5000 biotinylated mouse anti-human IgG1(Cat #555869, BD Biosciences) and Streptavidin-HRP (Cat #: 7100-05 Southern Biotech) (100 μl/well) for 1 hour at room temperature followed by washing 3 times with washing buffer, after which color was developed using the standard TMB method according to manufacturer's protocol for 15 minutes. Absorbance was read at 450 nm.
as §2

C1q [4] = molecular target: T3, C1q; test: ELISA on coated C1q; remark: listed apart in the source
FcγRI [5] = molecular target: T2, FcγRI; test: BLI (Octet); remark: listed apart in the source
Protocol: as §1

FcγRIIb [6] = molecular target: T1, FcγRIIb; test: BLI (Octet); remark: listed apart in the source
Protocol: as §1

C1q [7] = molecular target: T3, C1q; test: ELISA on coated C1q; remark: listed apart in the source
Protocol: as §3

FcγRIIIa = FcγRIIIa (UniProt P08637 17-208); test: BLI (Octet); legend: - indicates no binding
Protocol: as §1

FcγRI [8] = molecular target: T2, FcγRI; test: BLI (Octet); remark: listed apart in the source
C1q [9] = molecular target: T3, C1q; test: ELISA on coated C1q; remark: listed apart in the source

FcγRIIIa, sequence (P08637 17-208 limits assumed): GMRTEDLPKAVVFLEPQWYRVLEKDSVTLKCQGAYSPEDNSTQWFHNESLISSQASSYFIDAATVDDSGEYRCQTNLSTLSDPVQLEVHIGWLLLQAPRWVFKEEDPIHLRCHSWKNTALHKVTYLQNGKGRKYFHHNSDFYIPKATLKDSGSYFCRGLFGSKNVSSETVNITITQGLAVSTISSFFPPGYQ
T3 sequence (P02745 23-245 limits assumed, chain 1 of 3): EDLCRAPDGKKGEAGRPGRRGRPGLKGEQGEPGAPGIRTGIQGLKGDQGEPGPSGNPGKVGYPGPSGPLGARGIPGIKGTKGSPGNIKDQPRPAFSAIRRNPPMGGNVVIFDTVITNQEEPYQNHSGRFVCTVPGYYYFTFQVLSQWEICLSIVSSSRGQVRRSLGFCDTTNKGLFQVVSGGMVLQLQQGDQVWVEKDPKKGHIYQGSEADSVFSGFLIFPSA
T3 sequence (P02746 28-253 limits assumed, chain 2 of 3): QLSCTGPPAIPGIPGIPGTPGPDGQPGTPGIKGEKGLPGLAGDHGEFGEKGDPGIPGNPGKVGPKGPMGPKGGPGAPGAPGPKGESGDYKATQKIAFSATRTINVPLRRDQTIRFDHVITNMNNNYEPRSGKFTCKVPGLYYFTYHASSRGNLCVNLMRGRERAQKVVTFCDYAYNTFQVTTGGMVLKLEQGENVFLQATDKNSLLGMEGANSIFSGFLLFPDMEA
T3 sequence (P02747 29-245 limits assumed, chain 3 of 3): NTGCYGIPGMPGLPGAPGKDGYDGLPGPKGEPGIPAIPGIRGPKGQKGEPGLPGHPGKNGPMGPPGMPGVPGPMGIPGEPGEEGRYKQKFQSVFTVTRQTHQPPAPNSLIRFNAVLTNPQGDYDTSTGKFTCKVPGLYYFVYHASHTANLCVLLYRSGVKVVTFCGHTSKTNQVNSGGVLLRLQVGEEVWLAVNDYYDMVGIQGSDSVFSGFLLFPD
T2 sequence (P12314 16-288 limits assumed): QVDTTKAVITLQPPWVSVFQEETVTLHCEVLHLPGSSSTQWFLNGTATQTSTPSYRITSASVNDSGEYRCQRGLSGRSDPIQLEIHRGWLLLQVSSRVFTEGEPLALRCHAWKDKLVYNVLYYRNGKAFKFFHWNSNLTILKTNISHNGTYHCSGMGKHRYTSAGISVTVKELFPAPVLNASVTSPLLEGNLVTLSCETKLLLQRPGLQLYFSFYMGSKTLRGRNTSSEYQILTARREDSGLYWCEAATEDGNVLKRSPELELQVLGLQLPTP

Row | binding result (FcγRI [5]) | binding result (FcγRIIb [6]) | binding result (C1q [7]) | binding result (FcγRIIIa) | Binder | other results
1 | binds | binds | binds | no binding | G1025 (Fc fusion, G045c background, P238D/S267E/H268F/S324T; leader 1-20 cleaved) EPKSCDKTHTCPPCPAPELLGGDSVFLFPPKPKDTLMISRTPEVTCVVVDVEFEDPEVKFNWYVDGVEVHNAKTKPREEQYNSTYRVVSVLTVLHQDWLNGKEYKCKVTNKALPAPIEKTISKAKGQPREPQVYTLPPSRDELTKNQVSLTCLVKGFYPSDIAVEWESNGQPENNYKTTPPVLDSDGSFFLYSKLTVDKSRWQQGNVFSCSVMHEALHNHYTQKSLSLSPGKERKCCVECPPCP | 
2 | binds | binds | binds | no binding | G1043 (Fc fusion, G045c background, P238D/D265G/S267E/H268F/S324T; leader 1-20 cleaved) EPKSCDKTHTCPPCPAPELLGGDSVFLFPPKPKDTLMISRTPEVTCVVVGVEFEDPEVKFNWYVDGVEVHNAKTKPREEQYNSTYRVVSVLTVLHQDWLNGKEYKCKVTNKALPAPIEKTISKAKGQPREPQVYTLPPSREEMTKNQVSLTCLVKGFYPSDIAVEWESNGQPENNYKTTPPVLDSDGSFFLYSKLTVDKSRWQQGNVFSCSVMHEALHNHYTQKSLSLSPGKERKCCVECPPCP | 
3 | binds | binds | binds | no binding | G1027 (Fc fusion, G045c background, P238D/S267E/H268F/N297A/S324T; leader 1-20 cleaved) EPKSCDKTHTCPPCPAPELLGGDSVFLFPPKPKDTLMISRTPEVTCVVVDVEFEDPEVKFNWYVDGVEVHNAKTKPREEQYASTYRVVSVLTVLHQDWLNGKEYKCKVTNKALPAPIEKTISKAKGQPREPQVYTLPPSRDELTKNQVSLTCLVKGFYPSDIAVEWESNGQPENNYKTTPPVLDSDGSFFLYSKLTVDKSRWQQGNVFSCSVMHEALHNHYTQKSLSLSPGKERKCCVECPPCP | 
4 | binds | binds | binds | no binding | G1042 (Fc fusion, G045c background, E233P/G236R/S267E/H268F/S324T/L328F; leader 1-20 cleaved) EPKSCDKTHTCPPCPAPPLLRGPSVFLFPPKPKDTLMISRTPEVTCVVVDVEFEDPEVKFNWYVDGVEVHNAKTKPREEQYNSTYRVVSVLTVLHQDWLNGKEYKCKVTNKAFPAPIEKTISKAKGQPREPQVYTLPPSRDELTKNQVSLTCLVKGFYPSDIAVEWESNGQPENNYKTTPPVLDSDGSFFLYSKLTVDKSRWQQGNVFSCSVMHEALHNHYTQKSLSLSPGKERKCCVECPPCP | 

Further lines, the binder ahead of its results:

Row | Binder | binding result (FcγRI [5]) | binding result (FcγRIIb [6]) | binding result (C1q [7]) | binding result (FcγRIIIa) | other results
5 | G1109 (Fc fusion, G045c background, E233P/S267E/H268F/S324T; leader 1-20 cleaved) EPKSCDKTHTCPPCPAPPLLGGPSVFLFPPKPKDTLMISRTPEVTCVVVDVEFEDPEVKFNWYVDGVEVHNAKTKPREEQYNSTYRVVSVLTVLHQDWLNGKEYKCKVTNKALPAPIEKTISKAKGQPREPQVYTLPPSRDELTKNQVSLTCLVKGFYPSDIAVEWESNGQPENNYKTTPPVLDSDGSFFLYSKLTVDKSRWQQGNVFSCSVMHEALHNHYTQKSLSLSPGKERKCCVECPPCP |  |  |  |  | binding result (FcγRI [1]): binds; binding result (FcγRIIb [2]): binds; binding result (C1q [3]): binds
6 | G1031 (Fc fusion) EPKSCDKTHTCPPCPAPPLLRGPSVFLFPPKPKDTLMISRTPEVTCVVVAVEFEDPEVKFNWYVDGVEVHNAKTKPREEQYASTYRVVSVLTVLHQDWLNGKEYKCKVTNKALPAPIEKTISKAKGQPREPQVYTLPPSRDELTKNQVSLTCLVKGFYPSDIAVEWESNGQPENNYKTTPPVLDSDGSFFLYSKLTVDKSRWQQGNVFSCSVMHEALHNHYTQKSLSLSPGKERKCCVECPPCP |  |  |  |  | binding result (C1q [4]): no binding
7 | G1044 (Fc fusion) EPKSCDKTHTCPPCPAPELLGGDSVFLFPPKPKDTLMISRTPEVTCVVVCVEFEDPEVKFNWYVDGVEVHNAKTKPREEQYNSTYRVVSVLTVLHQDWLNGKEYKCKVTNKALPAPIEKTISKAKGQPREPQVYTLPPSRDELTKNQVSLTCLVKGFYPSDIAVEWESNGQPENNYKTTPPVLDSDGSFFLYSKLTVDKSRWQQGNVFSCSVMHEALHNHYTQKSLSLSPGKERKCCVECPPCP |  |  |  |  | binding result (FcγRI [8]): binds; binding result (C1q [9]): no binding
8 | G1071d2 (Fc fusion, G045c background, H268F/S324T/T299A; leader 1-20 cleaved) EPKSCDKTHTCPPCPAPELLGGPSVFLFPPKPKDTLMISRTPEVTCVVVDVSFEDPEVKFNWYVDGVEVHNAKTKPREEQYNSAYRVVSVLTVLHQDWLNGKEYKCKVTNKALPAPIEKTISKAKGQPREPQVYTLPPSRDELTKNQVSLTCLVKGFYPSDIAVEWESNGQPENNYKTTPPVLDSDGSFFLYSKLTVDKSRWQQGNVFSCSVMHEALHNHYTQKSLSLSPGKERKCCVECPPCP |  |  |  |  | binding result (FcγRI [1]): binds; binding result (FcγRIIb [2]): binds; binding result (C1q [3]): binds
9 | G1006 (Fc fusion, G045c background, D265A/S267E/H268F/S324T; leader 1-20 cleaved) EPKSCDKTHTCPPCPAPELLGGPSVFLFPPKPKDTLMISRTPEVTCVVVAVEFEDPEVKFNWYVDGVEVHNAKTKPREEQYNSTYRVVSVLTVLHQDWLNGKEYKCKVTNKALPAPIEKTISKAKGQPREPQVYTLPPSRDELTKNQVSLTCLVKGFYPSDIAVEWESNGQPENNYKTTPPVLDSDGSFFLYSKLTVDKSRWQQGNVFSCSVMHEALHNHYTQKSLSLSPGKERKCCVECPPCP | binds | binds | binds | no binding | 
10 | G1046 (Fc fusion, G045c background, P238D/D265W/S267E/H268F/S324T; leader 1-20 cleaved) EPKSCDKTHTCPPCPAPELLGGDSVFLFPPKPKDTLMISRTPEVTCVVVWVEFEDPEVKFNWYVDGVEVHNAKTKPREEQYNSTYRVVSVLTVLHQDWLNGKEYKCKVTNKALPAPIEKTISKAKGQPREPQVYTLPPSREEMTKNQVSLTCLVKGFYPSDIAVEWESNGQPENNYKTTPPVLDSDGSFFLYSKLTVDKSRWQQGNVFSCSVMHEALHNHYTQKSLSLSPGKERKCCVECPPCP | binds |  | binds | no binding | 
11 | G1001 (Fc fusion, G019 background, S267E/H268F/S324T/N297A) ERKCCVECPPCPEPKSCDKTHTCPPCPAPELLGGPSVFLFPPKPKDTLMISRTPEVTCVVVDVEFEDPEVKFNWYVDGVEVHNAKTKPREEQYASTYRVVSVLTVLHQDWLNGKEYKCKVTNKALPAPIEKTISKAKGQPREPQVYTLPPSREEMTKNQVSLTCLVKGFYPSDIAVEWESNGQPENNYKTTPPVLDSDGSFFLYSKLTVDKSRWQQGNVFSCSVMHEALHNHYTQKSLSLSPGK |  |  |  |  | binding result (FcγRI [8]): binds; binding result (C1q [9]): no binding
12 | G1024 (Fc fusion, G019 background, P238D/S267E/H268F/S324T) ERKCCVECPPCPEPKSCDKTHTCPPCPAPELLGGDSVFLFPPKPKDTLMISRTPEVTCVVVDVEFEDPEVKFNWYVDGVEVHNAKTKPREEQYNSTYRVVSVLTVLHQDWLNGKEYKCKVTNKALPAPIEKTISKAKGQPREPQVYTLPPSREEMTKNQVSLTCLVKGFYPSDIAVEWESNGQPENNYKTTPPVLDSDGSFFLYSKLTVDKSRWQQGNVFSCSVMHEALHNHYTQKSLSLSPGK |  |  |  |  | binding result (C1q [4]): no binding
13 | G1048 (Fc fusion, G019 background, G236R/L328F/S267E/H268F/S324T) ERKCCVECPPCPEPKSCDKTHTCPPCPAPELLRGPSVFLFPPKPKDTLMISRTPEVTCVVVDVEFEDPEVKFNWYVDGVEVHNAKTKPREEQYNSTYRVVSVLTVLHQDWLNGKEYKCKVTNKAFPAPIEKTISKAKGQPREPQVYTLPPSREEMTKNQVSLTCLVKGFYPSDIAVEWESNGQPENNYKTTPPVLDSDGSFFLYSKLTVDKSRWQQGNVFSCSVMHEALHNHYTQKSLSLSPGK |  |  |  |  | binding result (C1q [9]): no binding
